From patent US20180057603A1

Molecular target: erbB2 (p185erbB2/HER2/neu) on SK-BR-3 cells (human) (UniProt P04626)
Assay: cell-based or functional assay

- foci less than 20 pixels in soft agar (SK-BR-3): 72%
Substance: anti-erbB2 mAb 4D5 (antibody)
